Test results from patent publication US20050064433.

System: T1, SbfI restriction endonuclease (R.SbfI) (Streptomyces species Bf-61)
T1 sequence: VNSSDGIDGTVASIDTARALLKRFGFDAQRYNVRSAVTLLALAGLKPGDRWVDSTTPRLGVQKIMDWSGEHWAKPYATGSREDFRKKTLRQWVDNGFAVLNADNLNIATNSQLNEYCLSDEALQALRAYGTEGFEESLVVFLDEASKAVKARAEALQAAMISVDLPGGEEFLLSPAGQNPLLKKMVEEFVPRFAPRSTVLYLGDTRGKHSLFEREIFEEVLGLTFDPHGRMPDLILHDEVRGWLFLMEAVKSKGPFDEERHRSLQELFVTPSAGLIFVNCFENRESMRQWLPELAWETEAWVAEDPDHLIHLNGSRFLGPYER
Assay: cleavage_in_vitro
Settings: recombinant cell extract, serial dilutions 1x to 1/64; yield more than about 10^5 units per gram wet E. coli cells; recognition sequence not given

Substance: lambda DNA (printed as "I DNA") restriction substrate
- activity (U/g wet cells): 100000
